The values that follow come from patent publication US20030124529.

For data set [1], the target named is rIGFBP-3 (gift of D. Powell), P17936.
In data set [2] the target is rIGFBP-5 (gift of D. Andress), P24593.
In data set [3] the target is C-terminally c-myc tagged rIGFBP-5 (human IGFBP-5 followed by a c-myc and His tag, expressed in 293T cells), P24593.
Sequence of C-terminally c-myc tagged rIGFBP-5 (human IGFBP-5 followed by a c-myc and His tag, expressed in 293T cells), P24593 (P24593 other isoform, or with tags, fused parts or gaps): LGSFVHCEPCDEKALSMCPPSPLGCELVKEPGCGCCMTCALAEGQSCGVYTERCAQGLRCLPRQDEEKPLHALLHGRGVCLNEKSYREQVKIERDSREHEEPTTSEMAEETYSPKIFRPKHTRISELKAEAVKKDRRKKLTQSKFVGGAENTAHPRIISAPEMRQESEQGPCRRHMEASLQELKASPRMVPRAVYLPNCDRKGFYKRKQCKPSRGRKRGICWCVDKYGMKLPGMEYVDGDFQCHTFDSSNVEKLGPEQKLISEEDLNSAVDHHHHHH

Sequence of rIGFBP-5 (gift of D. Andress), P24593 (P24593 21-272): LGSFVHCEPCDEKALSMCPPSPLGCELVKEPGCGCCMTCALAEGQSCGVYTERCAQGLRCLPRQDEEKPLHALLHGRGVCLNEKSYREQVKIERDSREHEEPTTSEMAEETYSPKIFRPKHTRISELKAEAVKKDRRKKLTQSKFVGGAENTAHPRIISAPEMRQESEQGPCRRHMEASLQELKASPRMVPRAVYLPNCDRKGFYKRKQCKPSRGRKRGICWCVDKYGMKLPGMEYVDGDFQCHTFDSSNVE
Sequence of rIGFBP-3 (gift of D. Powell), P17936 (P17936 28-291): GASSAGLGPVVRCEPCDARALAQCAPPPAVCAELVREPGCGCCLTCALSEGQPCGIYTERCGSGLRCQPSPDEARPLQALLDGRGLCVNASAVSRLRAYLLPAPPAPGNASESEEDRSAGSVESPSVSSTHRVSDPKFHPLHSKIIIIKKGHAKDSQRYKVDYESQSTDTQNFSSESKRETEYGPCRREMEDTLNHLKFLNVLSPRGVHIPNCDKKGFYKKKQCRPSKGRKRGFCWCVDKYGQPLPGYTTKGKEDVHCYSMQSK

B1: recombinant wild-type PAPP-A2 (pregnancy-associated plasma protein-A2), in medium of 293T cells transfected with pPA2 (protein)
chain: SPPEESNQNGGEGSYREAETFNSQVGLPILYFSGRRERLLLRPEVLAEIPREAFTVEAWVKPEGGQNNPAIIAGVFDNCSHTVSDKGWALGIRSGKDKGKRDARFFFSLCTDRVKKATILISHSRYQPGTWTHVAATYDGRHMALYVDGTQVASSLDQSGPLNSPFMASCRSLLLGGDSSEDGHYFRGHLGTLVFWSTALPQSHFQHSSQHSSGEEEATDLVLTASFEPVNTEWVPFRDEKYPRLEVLQGFEPEPEILSPLQPPLCGQTVCDNVELISQYNGYWPLRGEKVIRYQVVNICDDEGLNPIVSEEQIRLQHEALNEAFSRYNISWQLSVHQVHNSTLRHRVVLVNCEPSKIGNDHCDPECEHPLTGYDGGDCRLQGRCYSWNRRDGLCHVECNNMLNDFDDGDCCDPQVADVRKTCFDPDSPKRAYMSVKELKEALQLNSTHFLNIYFASSVREDLAGAATWPWDKDAVTHLGGIVLSPAYYGMPGHTDTMIHEVGHVLGLYHVFKGVSERESCNDPCKETVPSMETGDLCADTAPTPKSELCREPEPTSDTCGFTRFPGAPFTNYMSYTDDNCTDNFTPNQVARMHCYLDLVYQQWTESRKPTPIPIPPMVIGQTNKSLTIHWLPPISGVVYDRASGSLCGACTEDGTFRQYVHTASSRRVCDSSGYWTPEEAVGPPDVDQPCEPSLQAWSPEVHLYHMNMTVPCPTEGCSLELLFQHPVQADTLTLWVTSFFMESSQVLFDTEILLENKESVHLGPLDTFCDIPLTIKLHVDGKVSGVKVYTFDERIEIDAALLTSQPHSPLCSGCRPVRYQVLRDPPFASGLPVVVTHSHRKFTDVEVTPGQMYQYQVLAEAGGELGEASPPLNHIHGAPYCGDGKVSERLGEECDDGDLVSGDGCSKVCELEEGFNCVGEPSLCYMYEGDGICEPFERKTSIVDCGIYTPKGYLDQWATRAYSSHEDKKKCPVSLVTGEPHSLICTSYHPDLPNHRPLTGWFPCVASENETQDDRSEQPEGSLKKEDEVWLKVCFNRPGEARAIFIFLTTDGLVPGEHQQPTVTLYLTDVRGSNHSLGTYGLSCQHNPLIINVTHHQNVLFHHTTSVLLNFSSPRVGISAVALRTSSRIGLSAPSNCISEDEGQNHQGQSCIHRPCGKQDSCPSLLLDHADVVNCTSIGPGLMKCAITCQRGFALQASSGQYIRPMQKEILLTCSSGHWDQNVSCLPVDCGVPDPSLVNYANFSCSEGTKFLKRCSISCVPPAKLQGLSPWLTCLEDGLWSLPEVYCKLECDAPPIILNANLLLPHCLQDNHDVGTICKYECKPGYYVAESAEGKVRNKLLKIQCLEGGIWEQGSCIPVVCEPPPPVFEGMYECTNGFSLDSQCVLNCNQEREKLPILCTKEGLWTQEFKLCENLQGECPPPPSELNSVEYKCEQGYGIGAVCSPLCVIPPSDPVMLPENITADTLEHWMEPVKVQSIVCTGRRQWHPDPVLVHCIQSCEPFQADGWCDTINNRAYCHYDGGDCCSSTLSSKKVIPFAADCDLDECTCRDPKAEENQ
For the protein B1, the “proteolytic cleavage, ligand blotting with radiolabeled IGF-II” value is recorded as “IGFBP-3 was partially degraded” in data set [1] and “Of the six binding proteins, IGFBP-5 showed complete cleavage” in data set [2]. Also, the “proteolytic activity, Western blotting using anti-c-myc” value in data set [3] is listed as “In the absence of inhibitors, wild-type PAPP-A2 degraded all rIGFBP-5 (lane 3)”.

B2: purified PAPP-A2 (protein)
chain: B1 chain
For the protein B2, the “proteolytic cleavage, SDS-PAGE and N-terminal sequence analysis” value in data set [3] was “PAPP-A2 cleaves IGFBP-5 at one site, between Ser-143 and Lys-144”.
